One molecule from patent US20080292619A1, “Pharmaceutical Composition Containing Meltrin Antagonist” (MOCHIDA PHARMACEUTICAL CO., LTD., priority 2004, published 2008) can be followed below.

The test has as its target T1, meltrin α (Homo sapiens, UniProt O43184, E208G/T209S).
T1 construct: had been converted to mature meltrin α having the prodomain deleted (molecular weight 68 kDa); made in house; host or cells: COS-1
T1 sequence (O43184 208-738 isoform O43184-2 E208G/T209S): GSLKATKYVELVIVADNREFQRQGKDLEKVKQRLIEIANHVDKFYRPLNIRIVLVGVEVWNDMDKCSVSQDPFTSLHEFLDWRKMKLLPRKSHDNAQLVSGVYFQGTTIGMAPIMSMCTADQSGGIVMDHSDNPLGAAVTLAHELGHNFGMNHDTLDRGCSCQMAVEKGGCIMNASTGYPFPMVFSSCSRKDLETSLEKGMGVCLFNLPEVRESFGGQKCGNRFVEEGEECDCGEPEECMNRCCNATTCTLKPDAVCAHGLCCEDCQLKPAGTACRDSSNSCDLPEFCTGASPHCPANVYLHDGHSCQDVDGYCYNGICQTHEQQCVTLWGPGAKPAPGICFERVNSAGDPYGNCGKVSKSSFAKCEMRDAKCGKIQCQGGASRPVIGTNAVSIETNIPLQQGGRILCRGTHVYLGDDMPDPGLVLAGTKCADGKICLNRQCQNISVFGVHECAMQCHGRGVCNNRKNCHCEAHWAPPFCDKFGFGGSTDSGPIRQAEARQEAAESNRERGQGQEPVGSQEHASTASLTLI
The experiment in a line: Inhibition of protease activity of meltrin α (rhIGF-BP3 cleavage, western blotting). It is filed as biochemical. The following applies: antibody 300 μg/mL; rhIGF-BP3 band. The protocol: Thrombin (Amersham Biosciences) was added to the purified meltrin α-STFLAG prepared in Example 5, and mixture was kept at 25° C. for 15 hours. When the solution after the reaction was examined by repeating the procedure of Example 5, the human meltrin α containing the prodomain (molecular weight 92 kDa) had been converted to mature meltrin α having the prodomain deleted (molecular weight 68 kDa). For measuring the enzymatic activity of the meltrin α, the solution after the prodomain cleavage with thrombin followed by inactivation of the thrombin by 10 mM APMSF (Wako Pure Chemical Industries, Ltd.) was used. The disappearance of the thrombin activity was confirmed by using the synthetic substrate for the thrombin on the reaction solution. […]
The anti-human meltrin α antibodies produced in Examples 6 and 7 were evaluated on their activity for inhibiting protease activity of meltrin α by using the protease activity assay system of Example 9. […] After the reaction, the reaction solution was electrophoresed by SDS-PAGE, and the rhIGF-BP3 was detected by western blotting.
According to the method of Example 9, activity of the low molecular weight compound for inhibiting protease activity of the meltrin α was assayed as described below. […] After the reaction, the reaction solution was electrophoresed by SDS-PAGE, and the rhIGF-BP3 was detected by western blotting.
Background: A western blot detects proteins with antibodies after separation by electrophoresis.

B1: F1196-113-1: anti-meltrin α monoclonal antibody clone (antibody, V domains shown)
VH: EVKLLESGGGLVQPGGSLKLSCAASGFDFSRYWMSWVRQAPGKGLEWIGEINPDSSTINYTPSLKDKFIISRDNAKNTLYLHMSKVRSEDTALYYCARPDSYYRYYAMDYWGQGTSVTVSSAKTTA
VL: DIQMTQTTSSLSASLGDRVTISCRASQDISNYLNWYQQKPDGTVKLLIYYTSRLHSGVPSRFSGSGSGTDYSLTISNQEQEDIATYFCQQGNTLPYTFGGGTKLEIKR
On to B1, for which the “activity for inhibiting protease activity of meltrin α” value is recorded as “inhibitory activity for the meltrin α protease activity has been confirmed”.
